Experimental data: FireProtDB (doi:10.1021/bi00135a019)

Conditions: Aspergillus oryzae (strain ATCC 42149 / RIB 40), Thermal, DSC, reversible: yes, whole UniProt chain shown
[1] = pH 7, PIPES 30 mM, MgCl2 0.40 M
[2] = pH 7, PIPES 30 mM, MgCl2 0.60 M
[3] = pH 7, PIPES 30 mM, MgCl2 0.80 M

B1: Guanyl-specific ribonuclease T1 wild type, P00651 (protein)
chain: MMYSKLLTLTTLLLPTALALPSLVERACDYTCGSNCYSSSDVSTAQAAGYQLHEDGETVGSNSYPHKYNNYEGFDFSVSSPYYEWPILSSGDVYSGGSPGADRVVFNENNQLAGVITHTGASGNNFVECT
For B1, the “unfolding enthalpy (van 't Hoff)” value (pH 7, PIPES 30 mM, MgCl2 0.20 M) was 122 kcal/mol, the Tm [1] was 60.1 °C and the “heat capacity change of unfolding” value [1] was 1.22 kcal/mol/K. The “unfolding enthalpy (calorimetric)” value [1] was 108 kcal/mol, the “unfolding enthalpy (van 't Hoff)” value [1] was 122 kcal/mol and the Tm [2] was 61.9 °C. The “heat capacity change of unfolding” value [2] was 1.07 kcal/mol/K, the “unfolding enthalpy (calorimetric)” value [2] was 109 kcal/mol and the “unfolding enthalpy (van 't Hoff)” value [2] was 125 kcal/mol. The Tm [3] was 63 °C, the “heat capacity change of unfolding” value [3] was 1.14 kcal/mol/K and the “unfolding enthalpy (calorimetric)” value [3] was 111 kcal/mol. For the same protein, the “unfolding enthalpy (van 't Hoff)” value [3] was 121 kcal/mol, the Tm (pH 7, PIPES 30 mM, NaCl 0 M) was 48.9 °C and the “heat capacity change of unfolding” value (pH 7, PIPES 30 mM, NaCl 0 M) was 1.35 kcal/mol/K. The “unfolding enthalpy (calorimetric)” value (pH 7, PIPES 30 mM, NaCl 0 M) was 95.5 kcal/mol, the “unfolding enthalpy (van 't Hoff)” value (pH 7, PIPES 30 mM, NaCl 0 M) was 118 kcal/mol and the Tm (pH 7, PIPES 30 mM, NaCl 0.05 M) was 51 °C. For the same protein, the “heat capacity change of unfolding” value (pH 7, PIPES 30 mM, NaCl 0.05 M) was 0.93 kcal/mol/K, the “unfolding enthalpy (calorimetric)” value (pH 7, PIPES 30 mM, NaCl 0.05 M) was 99.5 kcal/mol and the “unfolding enthalpy (van 't Hoff)” value (pH 7, PIPES 30 mM, NaCl 0.05 M) was 120 kcal/mol. For the same protein, the Tm (pH 7, PIPES 30 mM, NaCl 0.10 M) was 52.1 °C, the “heat capacity change of unfolding” value (pH 7, PIPES 30 mM, NaCl 0.10 M) was 1.6 kcal/mol/K and the “unfolding enthalpy (calorimetric)” value (pH 7, PIPES 30 mM, NaCl 0.10 M) was 101 kcal/mol. The “unfolding enthalpy (van 't Hoff)” value (pH 7, PIPES 30 mM, NaCl 0.10 M) was 119 kcal/mol, the Tm (pH 7, PIPES 30 mM, NaCl 0.20 M) was 53.9 °C and the “heat capacity change of unfolding” value (pH 7, PIPES 30 mM, NaCl 0.20 M) was 1.31 kcal/mol/K. For the same protein, the “unfolding enthalpy (calorimetric)” value (pH 7, PIPES 30 mM, NaCl 0.20 M) was 105 kcal/mol, the “unfolding enthalpy (van 't Hoff)” value (pH 7, PIPES 30 mM, NaCl 0.20 M) was 121 kcal/mol and the Tm (pH 7, PIPES 30 mM, NaCl 0.40 M) was 56.5 °C. For the same protein, the “heat capacity change of unfolding” value (pH 7, PIPES 30 mM, NaCl 0.40 M) was 1.4 kcal/mol/K, the “unfolding enthalpy (calorimetric)” value (pH 7, PIPES 30 mM, NaCl 0.40 M) was 107 kcal/mol and the “unfolding enthalpy (van 't Hoff)” value (pH 7, PIPES 30 mM, NaCl 0.40 M) was 121 kcal/mol. For the same protein, the Tm (pH 7, PIPES 30 mM, NaCl 0.60 M) was 58.5 °C, the “heat capacity change of unfolding” value (pH 7, PIPES 30 mM, NaCl 0.60 M) was 1.31 kcal/mol/K and the “unfolding enthalpy (calorimetric)” value (pH 7, PIPES 30 mM, NaCl 0.60 M) was 111 kcal/mol. For the same protein, the “unfolding enthalpy (van 't Hoff)” value (pH 7, PIPES 30 mM, NaCl 0.60 M) was 122 kcal/mol, the Tm (pH 7, PIPES 30 mM, NaCl 0.80 M) was 60.2 °C and the “heat capacity change of unfolding” value (pH 7, PIPES 30 mM, NaCl 0.80 M) was 2.11 kcal/mol/K. The “unfolding enthalpy (calorimetric)” value (pH 7, PIPES 30 mM, NaCl 0.80 M) was 111 kcal/mol, the “unfolding enthalpy (van 't Hoff)” value (pH 7, PIPES 30 mM, NaCl 0.80 M) was 124 kcal/mol and the Tm (pH 7, PIPES 30 mM, NaCl 1.20 M) was 63.2 °C. For the same protein, the “heat capacity change of unfolding” value (pH 7, PIPES 30 mM, NaCl 1.20 M) was 1.42 kcal/mol/K, the “unfolding enthalpy (calorimetric)” value (pH 7, PIPES 30 mM, NaCl 1.20 M) was 112 kcal/mol and the “unfolding enthalpy (van 't Hoff)” value (pH 7, PIPES 30 mM, NaCl 1.20 M) was 126 kcal/mol. For the same protein, the Tm (pH 7, PIPES 30 mM, NaCl 1.60 M) was 65.6 °C, the “heat capacity change of unfolding” value (pH 7, PIPES 30 mM, NaCl 1.60 M) was 1.37 kcal/mol/K and the “unfolding enthalpy (calorimetric)” value (pH 7, PIPES 30 mM, NaCl 1.60 M) was 115 kcal/mol. The “unfolding enthalpy (van 't Hoff)” value (pH 7, PIPES 30 mM, NaCl 1.60 M) was 125 kcal/mol, the Tm (pH 7, PIPES 30 mM) was 48.9 °C and the “heat capacity change of unfolding” value (pH 7, PIPES 30 mM) was 1.35 kcal/mol/K. The “unfolding enthalpy (calorimetric)” value (pH 7, PIPES 30 mM) was 95.5 kcal/mol, the “unfolding enthalpy (van 't Hoff)” value (pH 7, PIPES 30 mM) was 119 kcal/mol and the Tm (pH 7.5, PIPES 30 mM) was 46.7 °C. For the same protein, the “heat capacity change of unfolding” value (pH 7.5, PIPES 30 mM) was 1.71 kcal/mol/K, the “unfolding enthalpy (calorimetric)” value (pH 7.5, PIPES 30 mM) was 93.2 kcal/mol and the “unfolding enthalpy (van 't Hoff)” value (pH 7.5, PIPES 30 mM) was 121 kcal/mol. The Tm (pH 8, PIPES 30 mM) was 45.8 °C, the “heat capacity change of unfolding” value (pH 8, PIPES 30 mM) was 0.88 kcal/mol/K and the “unfolding enthalpy (calorimetric)” value (pH 8, PIPES 30 mM) was 91.6 kcal/mol. For the same protein, the “unfolding enthalpy (van 't Hoff)” value (pH 8, PIPES 30 mM) was 116 kcal/mol, the Tm (pH 9, glycine 30 mM) was 40.7 °C and the “heat capacity change of unfolding” value (pH 9, glycine 30 mM) was 0.42 kcal/mol/K. The “unfolding enthalpy (calorimetric)” value (pH 9, glycine 30 mM) was 76.5 kcal/mol, the “unfolding enthalpy (van 't Hoff)” value (pH 9, glycine 30 mM) was 114 kcal/mol and the Tm (pH 10, glycine 30 mM) was 39.4 °C. The “unfolding enthalpy (calorimetric)” value (pH 10, glycine 30 mM) was 76.9 kcal/mol and the “unfolding enthalpy (van 't Hoff)” value (pH 10, glycine 30 mM) was 104 kcal/mol.
